The values below come from US20240101670A1.

The experiment deals with Human C1q (human) (UniProt P02745). Nature of the experiment: ELISA: antibody coated on the plate at the concentration shown, human C1q added at 10 ug/mL, detection with sheep anti-human C1q-HRP, OD450.
Human C1q (human), sequence (P02745 23-245 limits assumed, chain 1 of 3): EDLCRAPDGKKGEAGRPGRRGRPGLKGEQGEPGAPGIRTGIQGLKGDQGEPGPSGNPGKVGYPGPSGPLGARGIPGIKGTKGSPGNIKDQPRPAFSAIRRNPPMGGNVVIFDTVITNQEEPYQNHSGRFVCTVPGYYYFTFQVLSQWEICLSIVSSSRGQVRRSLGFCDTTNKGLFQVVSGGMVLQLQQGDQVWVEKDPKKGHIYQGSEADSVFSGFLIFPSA
Human C1q (human), sequence (P02746 28-253 limits assumed, chain 2 of 3, further chain): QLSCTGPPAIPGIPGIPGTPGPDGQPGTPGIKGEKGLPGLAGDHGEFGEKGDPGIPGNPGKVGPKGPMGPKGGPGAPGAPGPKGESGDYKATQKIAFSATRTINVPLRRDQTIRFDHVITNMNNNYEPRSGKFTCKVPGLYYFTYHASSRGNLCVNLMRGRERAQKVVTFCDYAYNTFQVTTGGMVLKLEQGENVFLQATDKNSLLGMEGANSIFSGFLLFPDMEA
Human C1q (human), sequence (P02747 29-245 limits assumed, chain 3 of 3, further chain): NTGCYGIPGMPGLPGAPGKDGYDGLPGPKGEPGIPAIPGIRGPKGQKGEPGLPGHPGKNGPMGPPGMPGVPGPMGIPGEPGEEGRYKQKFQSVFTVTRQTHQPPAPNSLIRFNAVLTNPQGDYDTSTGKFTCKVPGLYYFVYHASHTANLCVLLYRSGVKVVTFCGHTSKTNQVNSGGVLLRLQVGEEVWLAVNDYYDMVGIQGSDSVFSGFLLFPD

With human IgG1 isotype control antibody, the EC50 (read off the curve) was 2 µg/mL.
